Reference: article PMC4349574 (Developmental cell, 2013)

Biological target: T1, Ypp1 (residues 11–817), purified, GST tag removed (S. cerevisiae, UniProt P46951 11-817)
T1 sequence (looked up): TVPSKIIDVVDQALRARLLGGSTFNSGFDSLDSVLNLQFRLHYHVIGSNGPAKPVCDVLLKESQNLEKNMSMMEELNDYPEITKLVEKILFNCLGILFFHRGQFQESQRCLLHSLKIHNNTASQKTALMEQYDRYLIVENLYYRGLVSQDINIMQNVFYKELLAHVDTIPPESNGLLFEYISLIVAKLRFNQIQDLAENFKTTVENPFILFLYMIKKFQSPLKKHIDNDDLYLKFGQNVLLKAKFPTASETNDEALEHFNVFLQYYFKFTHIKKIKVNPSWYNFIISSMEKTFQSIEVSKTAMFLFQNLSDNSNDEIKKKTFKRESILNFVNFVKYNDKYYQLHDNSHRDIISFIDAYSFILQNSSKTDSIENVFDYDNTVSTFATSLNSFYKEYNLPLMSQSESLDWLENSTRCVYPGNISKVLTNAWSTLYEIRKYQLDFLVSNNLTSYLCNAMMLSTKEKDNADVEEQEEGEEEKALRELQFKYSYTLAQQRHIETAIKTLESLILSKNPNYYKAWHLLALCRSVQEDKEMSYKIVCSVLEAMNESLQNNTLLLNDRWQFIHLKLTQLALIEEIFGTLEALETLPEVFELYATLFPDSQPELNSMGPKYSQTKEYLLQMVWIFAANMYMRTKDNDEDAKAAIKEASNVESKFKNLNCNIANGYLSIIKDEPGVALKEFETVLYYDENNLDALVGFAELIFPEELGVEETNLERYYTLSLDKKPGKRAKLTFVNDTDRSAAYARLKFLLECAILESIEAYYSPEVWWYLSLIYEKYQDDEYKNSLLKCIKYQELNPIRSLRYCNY
Assay: pull-down

- binding result: binds
B1: GST-Efr3-C_(651–730) (domain or fragment, S. cerevisiae, UniProt Q03653 651-730, looked up)
chain: APKVSDLKKTMNEKNIPNNMKRDGSFRGSQSVKSRVTNITFLLNELKTFSDDANKIKDPDEENIVGLDKIDVARSNSLRL
